By IC50 is commonly meant the point on the concentration scale where inhibition reaches its midpoint. Higher therefore signals weaker potency. In general, EC50 refers to the concentration giving half of the maximal effect. As usually defined, the Kd is the free concentration of one partner at which half of the binding sites on the other are occupied at equilibrium, for simple one-to-one binding. For orientation: koff means a measure of how fast the partners let go of each other. Read a high koff as fast dissociation. As usually defined, the kon is a measure of how fast the partners come together. Read a low kon as slow association.

The results in this text go back to patent publication US20100280227A1 (Genentech, published 2010).

Assay [1] deals with T1, mouse BR3 extracellular domain (mouse, UniProt Q9D8D0 1-64).
T1 construct: also called mBR3-ECD; mBR-ECD
T1 sequence: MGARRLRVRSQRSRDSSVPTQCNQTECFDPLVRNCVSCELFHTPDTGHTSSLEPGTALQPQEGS
Briefly: phage competition ELISA. (In an ELISA, binding on a coated surface is turned into a signal by an enzyme label.)

In assay [2] the target is T2, human BR3 extracellular domain (human, UniProt Q96RJ3 1-61).
T2 construct: biotinylated where used as tracer; also called hBR3-ECD; BR3-ECD
Briefly: phage competition ELISA.

Assay [3] has as its target T3, human BR3 expressed on cells (human, UniProt Q96RJ3 1-184).
T3 construct: whole, on cells; also called BR3 on BJAB cells; cell surface BR3
Description: BJAB cells, direct binding.

Assay [4] has as its target T3, human BR3 expressed on cells. Description: BJAB cells, competition with biotin-BAFF.
Description: The diluted samples were added to the pelleted BJAB cells in 96 well plates as described above. After 45 min incubation on ice, the cells were washed twice with 200 μl cold assay buffer, and streptavidin-HRP (AMDEX, Amersham Biosciences, Piscataway, N.J.) diluted 1/5,000 in assay buffer was added (100 μl/well). The plates were incubated for a final 45 min on ice. After washing twice with cold assay buffer, color was developed using TMB, the reaction was stopped with H₃PO₄, and the plates were read as described above.
In assay [5] the target is T2, human BR3 extracellular domain. Description: SPR, BR3 ECD on chip.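 Note: Anti-BR3 antibodies passed over the chip at high flow in PBS with 0.05% polysorbate 20, on and off rates fitted together globally to a 1:1 binding model.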 For orientation: In SPR one partner is held on a chip, and binding of the other changes the refractive index at the surface.
The target is the same in assay [6]. Briefly: SPR, IgG on chip, BR3 ECD in solution.
For assay [7], the target named is T4, variant human BR3-Fc fusion.
T4 construct: produced in CHO cells; also called vBR3-Fc; vhBR3-Fc
Briefly: SPR, vBR3-Fc on chip.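 Note: Anti-BR3 antibodies passed over chip-bound BR3-Fc in PBS with 0.05% polysorbate 20, on and off rates fitted together globally to a 1:1 binding model.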
Description: After coupling, unoccupied sites on the chip were blocked by injecting 20 μl of 1M ethanolamine, pH 8.5. The running buffer was PBS containing 0.05% polysorbate 20. […] The binding surface was regenerated by injecting 20-30 μl of 10 mM glycine.HCl (pH 1.5). […] Data were analyzed using a 1:1 binding model using global fitting. The association and dissociation rate constants were fitted simultaneously (BIAevaluation software).
A high flow rate was used in order to minimize mass transport effects.

B1: V3-46s-13 phage clone (Fab, V domains shown)
VH: EVQLVESGGGLVQPGGSLRLSCAASGFTISSSSIHWVRQAPGKGLEWVAWVLPSVGFTDYADSVKGRFTISADTSKNTAYLQMNSLRAEDTAVYYCARRVCYNRLGVCAGGMDYWGQGTLVTVSS
VL: DIQMTQSPSSLSASVGDRVTITCRASEEIATAVAWYQQKPGKAPKLLIFAASYLFSGVPSRFSGSGSGTDFTLTISSLQPEDFATYYCQQSQVAPPTFGQGTKVEIK
Regarding B1, the IC50 in assay [1] was 0.713 nM; in assay [2], 0.08 nM.

B2: V3-46s IgG (antibody, V domains shown)
VH: EVQLVESGGGLVQPGGSLRLSCAASGFTISSSSIHWVRQAPGKGLEWVAWVLPSVGFTDYADSVKGRFTISADTSKNTAYLQMNSLRAEDTAVYYCARRVCYNRLGVCAGGMDYWGQGTLVTVSS
VL: DIQMTQSPSSLSASVGDRVTITCRASQDVSTAVAWYQQKPGKAPKLLIYSASFLYSGVPSRFSGSGSGTDFTLTISSLQPEDFATYYCQQSQISPPTFGQGTKVEIKR
notes: also called hV3-46S; HuV3-46s-IgG
For B2, in assay [3], the EC50 is 1.8 nM. Also, the IC50 in assay [4] is 1.9 nM.

B3: V3-46s-29 phage clone (Fab, V domains shown)
VH: EVQLVESGGGLVQPGGSLRLSCAASGFTISSSSIHWVRQAPGKGLEWVAWVLPSVGFTDYADSVKGRFTISADTSKNTAYLQMNSLRAEDTAVYYCARRVCYNRLGVCAGGMDYWGQGTLVTVSS
VL: DIQMTQSPSSLSASVGDRVTITCRASEEIATAVAWYQQKPGKAPKLLIFAASFLYSGVPSRFSGSGSGTDFTLTISSLQPEDFATYYCQQSEVSPPTFGQGTKVEIK
B3: the IC50 came out at 0.55 nM in assay [1] and 0.08 nM in assay [2].

B4: V3-46s-37 phage clone (Fab, V domains shown)
VH: EVQLVESGGGLVQPGGSLRLSCAASGFTISSSSIHWVRQAPGKGLEWVAWVLPSVGFTDYADSVKGRFTISADTSKNTAYLQMNSLRAEDTAVYYCARRVCYNRLGVCAGGMDYWGQGTLVTVSS
VL: DIQMTQSPSSLSASVGDRVTITCRASQDVATAVAWYQQKPGKAPKLLIFAASFLYSGVPSRFSGSGSGTDFTLTISSLQPEDFATYYCQQSQISPPTFGQGTKVEIK
For the molecule B4, the results for the IC50 in assay [1] and in assay [2] were 0.32 nM and 0.131 nM, respectively.

B5: V3-46s-33 phage clone (Fab, V domains shown)
VH: EVQLVESGGGLVQPGGSLRLSCAASGFTISSSSIHWVRQAPGKGLEWVAWVLPSVGFTDYADSVKGRFTISADTSKNTAYLQMNSLRAEDTAVYYCARRVCYNRLGVCAGGMDYWGQGTLVTVSS
VL: DIQMTQSPSSLSASVGDRVTITCRASEEISTAVAWYQQKPGKAPKLLIFSASYLYSGVPSRFSGSGSGTDFTLTISSLQPEDFATYYCQQSEVSPPTFGQGTKVEIK
As to B5, the figures for the IC50 in assay [1] and in assay [2] were 0.724 nM and 0.1 nM, respectively.

B6: V3-46s-31 phage clone (Fab, V domains shown)
VH: EVQLVESGGGLVQPGGSLRLSCAASGFTISSSSIHWVRQAPGKGLEWVAWVLPSVGFTDYADSVKGRFTISADTSKNTAYLQMNSLRAEDTAVYYCARRVCYNRLGVCAGGMDYWGQGTLVTVSS
VL: DIQMTQSPSSLSASVGDRVTITCRASQDIATSVAWYQQKPGKAPKLLIFAASYLFSGVPSRFSGSGSGTDFTLTISSLQPEDFATYYCQQSQVSPPTFGQGTKVEIK
B6: the IC50 was found to be 0.342 nM in assay [1] and 0.12 nM in assay [2].

B7: V3-46s-40 phage clone (Fab, V domains shown)
VH: EVQLVESGGGLVQPGGSLRLSCAASGFTISSSSIHWVRQAPGKGLEWVAWVLPSVGFTDYADSVKGRFTISADTSKNTAYLQMNSLRAEDTAVYYCARRVCYNRLGVCAGGMDYWGQGTLVTVSS
VL: DIQMTQSPSSLSASVGDRVTITCRASEEIATSVAWYQQKPGKAPKLLIFSASYLYSGVPSRFSGSGSGTDFTLTISSLQPEDFATYYCQQSQVSPPTFGQGTKVEIK
Take B7: the IC50 in assay [1] was 0.53 nM; in assay [2], 0.164 nM.

B8: V3-46s-45 phage clone (Fab, V domains shown)
VH: EVQLVESGGGLVQPGGSLRLSCAASGFTISSSSIHWVRQAPGKGLEWVAWVLPSVGFTDYADSVKGRFTISADTSKNTAYLQMNSLRAEDTAVYYCARRVCYNRLGVCAGGMDYWGQGTLVTVSS
VL: DIQMTQSPSSLSASVGDRVTITCRASEDVSSAVAWYQQKPGKAPKLLIFAASYLFSGVPSRFSGSGSGTDFTLTISSLQPEDFATYYCQHSQVSPPTFGQGTKVEIK
Consider B8, for which the results for the IC50 in assay [1] and in assay [2] were 0.37 nM and 0.121 nM, respectively.

B9: V3-46s-34 phage clone (Fab, V domains shown)
VH: EVQLVESGGGLVQPGGSLRLSCAASGFTISSSSIHWVRQAPGKGLEWVAWVLPSVGFTDYADSVKGRFTISADTSKNTAYLQMNSLRAEDTAVYYCARRVCYNRLGVCAGGMDYWGQGTLVTVSS
VL: DIQMTQSPSSLSASVGDRVTITCRASEDISSAVAWYQQKPGKAPKLLIFSASFLFSGVPSRFSGSGSGTDFTLTISSLQPEDFATYYCQQSQVSPPTFGQGTKVEIK
Turning to B9, the IC50 was 0.79 nM in assay [1] and 0.058 nM in assay [2].

B10: Hu2.1-30 IgG (antibody, V domains shown)
VH: EVQLVESGGGLVQPGGSLRLSCAASGDSITRGYWNWVRQAPGKGLEWVGYINYSGTTYYNPSLKSRFTISRDTSKNTFYLQMNSLRAEDTAVYYCANLNYYGAMDYWGQGTLVTVSS
VL: DIQMTQSPSSLSASVGDRVTITCRASESVDDYGISFMHWYQQKPGKAPKLLIYRASDLESGVPSRFSGSGSGTDFTLTISSLQPEDFATYYCQQTSKDPWTFGQGTKVEIKR
notes: humanized IgG; also called h2.1-30
On to B10, for which, in assay [3], a half-maximal response (EC50) required 0.11 nM. In assay [5], this molecule gave a Kd of 0.017 nM, a koff of 4e-05 s⁻¹ and a kon of 2.41e+06 M⁻¹ s⁻¹. For the same molecule, in assay [6], binding was put at a Kd of 0.02 nM, the koff is 7.6e-05 s⁻¹ and the kon was found to be 3.57e+06 M⁻¹ s⁻¹. This molecule registered an IC50 in assay [4] of 0.17 nM.

B11: Hu2.1-46 IgG (antibody, V domains shown)
VH: EVQLVESGGGLVQPGGSLRLSCAASGDSITRGYWNWVRQAPGKGLEWVGYINYSGTTYYNPSLKSRFTISRDTSKNTFYLQMNSLRAEDTAVYYCANSNFYGAMDYWGQGTLVTVSS
VL: DIQMTQSPSSLSASVGDRVTITCRASESVDDYGISFMHWYQQKPGKAPKLLIYRASDLESGVPSRFSGSGSGTDFTLTISSLQPEDFATYYCQQTSKDPWTFGQGTKVEIKR
notes: humanized IgG; also called h2.1-46
For the molecule B11, it took 0.11 nM to reach a half-maximal effect in assay [3] (EC50). Further, in assay [5], the Kd worked out at 0.02 nM, the koff amounted to 4.5e-05 s⁻¹ and the kon was 2.2e+06 M⁻¹ s⁻¹. In assay [7], this molecule showed a Kd of 0.041 nM, a koff of 3.96e-05 s⁻¹ and a kon of 978000 M⁻¹ s⁻¹. In assay [6], binding was put at a Kd of 0.193 nM, the koff stood at 0.000432 s⁻¹ and the kon stood at 2.24e+06 M⁻¹ s⁻¹. Besides, in assay [4], the IC50 is 0.19 nM.

B12: Hu2.1-94 IgG (antibody, V domains shown)
VH: EVQLVESGGGLVQPGGSLRLSCAASGDSITRGYWNWVRQAPGKGLEWVGYINYSGTTYYNPSLKSRFTISRDTSKNTLYLQMNSLRAEDTAVYYCATSHNTGEMDYWGQGTLVTVSS
VL: DIQMTQSPSSLSASVGDRVTITCRASESVDDYGISFMHWYQQKPGKAPKLLIYRASDLESGVPSRFSGSGSGTDFTLTISSLQPEDFATYYCQQTSKDPWTFGQGTKVEIKR
notes: humanized IgG; also called h2.1-94
In assay [5], B12 displayed a Kd of 0.037 nM, a koff of 6.6e-05 s⁻¹ and a kon of 1.77e+06 M⁻¹ s⁻¹. In assay [7], this molecule registered a Kd of 0.253 nM, a koff of 0.000121 s⁻¹ and a kon of 477000 M⁻¹ s⁻¹. Besides, the IC50 in assay [4] came to 5.1 nM.

B13: Hu9.1-88 IgG (antibody, V domains shown)
VH: EVQLVESGGGLVQPGGSLRLSCAASGFPVTGSYVSWVRQAPGKGLEWVGFIRDKANGYTTEYNPSVKGRFTISRDTSKNTLYLQMNSLRAEDTAVYYCAQVRRALDYWGQGTLVTVSS
VL: DIQMTQSPSSLSASVGDRVTITCKSSQSLLYSSNQNNYLAWYQQKPGKAPKLLIYWASTRESGVPSRFSGSGSGTDFTLTISSLQPEDFATYYCQQYYTYPYTFGQGTKVEIKR
notes: humanized IgG; also called h9.1-88
As to B13, a half-maximal effect in assay [3] (EC50) was put at 0.43 nM. Further, the Kd in assay [5] is 0.025 nM; in assay [7] it was 0.2 nM; in assay [6], 0.911 nM. Moreover, the koff in assay [5] came to 4.9e-05 s⁻¹; in assay [7] it was 0.000262 s⁻¹; in assay [6], 0.000926 s⁻¹. For the same molecule, the values for the kon in assay [5], in assay [7] and in assay [6] were 1.94e+06 M⁻¹ s⁻¹, 1.3e+06 M⁻¹ s⁻¹ and 1.02e+06 M⁻¹ s⁻¹, respectively. The molecule further had an IC50 in assay [4] of 0.6 nM.

B14: h9.1-70 IgG (antibody, V domains shown)
VH: EVQLVESGGGLVQPGGSLRLSCAASDSPRSGYYISWVRQAPGKGLEWVGFIRDKANGYTTEYNPSVKGRFTISADTSKNTAYLQMNSLRAEDTAVYYCAQVRRALDYWGQGTLVTVSS
VL: DIQMTQSPSSLSASVGDRVTITCKSSQSLLYSSNQNNYLAWYQQKPGKAPKLLIYWASIRDSGVPSRFSGSGSGTDFTLTISSLQPEDFATYYCQQYYTYPYTFGQGTKVEIKR
B14: in assay [3], the EC50 stood at 0.33 nM. Moreover, in assay [4], the IC50 amounted to 0.82 nM.

B15: h9.1-73 IgG (antibody, V domains shown)
VH: EVQLVESGGGLVQPGGSLRLSCAASGLPMAGFYTSWVRQAPGKGLEWVGFIRDKANGYTTEYNPSVKGRFTISADTSKNTAYLQMNSLRAEDTAVYYCAQVRRALDYWGQGTLVTVSS
VL: DIQMTQSPSSLSASVGDRVTITCKSSQSLLYSSNQNNYLAWYQQKPGKAPKLLIYWAQHLDSGVPSRFSGSGSGTDFTLTISSLQPEDFATYYCQQYYTYPYTFGQGTKVEIKR
Consider B15, for which the EC50 in assay [3] is 0.79 nM. The molecule also returned an IC50 in assay [4] of 1.78 nM.

B16: chimeric 9.1 IgG (antibody, V domains shown)
VH: EVKLVESGGGLVQPGGSLRLSCAISGFTVTAYYMSWVRQPPGKALEWLGFIRDKANGYTTEYNPSVKGRFTISRDNSQSIFYLQMNTLRAEDSATYYCAQVRRALDYWGQGTTVTVSA
VL: DIVMSQSPSSLAVSVGEKVTMSCKSSQSLLYSSNQNNYLAWYQQKPGQSPKLLIYWASTRESGVPDRFTGSGSGTDFTLTISSVKAEDLAVYYCQQYYTYPYTFGGGT
notes: also called Ch 9.1 IgG; ch 9.1
Consider B16, for which the midpoint of the response in assay [3], the EC50, lay at 0.36 nM. In assay [7], this molecule came in with a Kd of 0.17 nM.
